Test results from patent publication US20050032689A1, “Methods for treatment or diagnosis of disease or disorders associated with an APB domain” (New York University, priority 1994, published 2005).
“Also recorded” adds a separate entry of the source.

What was measured:
[1] = molecular target: T1, TrkA (Rattus norvegicus, UniProt P35739); test: Binding of GST fusion proteins to TrkA from nerve growth factor stimulated PC12 cell lysates; conditions: 10 μg GST fusion protein, PC12 lysates stimulated with nerve growth factor
T1 construct: lysates from 2×10^7 PC12 cells stimulated with 50 ng/ml nerve growth factor; endogenous in cells; host or cells: PC12
Experimental: (§1) FIGS. 4A, 4B, 4C and 4D. Binding of Shc fragments to growth factor receptors. A, schematic diagram illustrating the Shc fragments used in binding studies. Full length murine p52^shc is indicated in (i) while (ii)-(vi) were generated as GST fusion proteins for use in receptor binding studies. B, association of various GST fusion proteins with activated EGF receptor (EGFR). Binding was performed as in FIG. 2A with the exception that all lysates were stimulated with EGF. All studies used 3 μg of fusion proteins except for the Shc SH2 where 10 μg was used. Immunoblotting was performed with anti-phosphotyrosine. C, binding of Shc fusion proteins to NIH 3T3 cells expressing a HER1/2 chimera. This chimera consists of the EGF receptor extracellular binding domain and the intracellular region of HER2/neu. After stimulation of these cells with EGF (200 ng/ml) lysates were prepared and binding as well as blotting studies were performed as in B using anti-phosphotyrosine antibody. D, binding of Shc 1-209 to TrkA. Beads containing 10 μg of GST fusion proteins Shc 1-209, phospholipase C-γ (PLC-γ) SH2 (contains both N and C SH2 domains), or GST alone were added to lysates from 2×10^7 PC12 cells stimulated with 50 ng/ml nerve growth factor (lanes 1, 2, and 4). […] Protein concentration was determined by SDS-PAGE (polyacrylamide gel electrophoresis) using bovine serum albumin as a standard. […]

[2] = system: HER2/neu (HER1/2 chimera); test: Binding of GST-Shc fusion proteins to HER1/2 chimera from NIH 3T3 lysates, anti-phosphotyrosine blot; conditions: EGF-stimulated NIH 3T3 lysates
Experimental: as §1, with “4). The binding of the same amount of lysate to 2 μg of anti-TrkA antibody is shown as a positive control and to indicate the position of TrkA on the blot (lane 3). Otherwise, the binding and blotting were performed as in B using anti-phosphotyrosine antibody.” for “4).”

T1 sequence (P35739 33-799): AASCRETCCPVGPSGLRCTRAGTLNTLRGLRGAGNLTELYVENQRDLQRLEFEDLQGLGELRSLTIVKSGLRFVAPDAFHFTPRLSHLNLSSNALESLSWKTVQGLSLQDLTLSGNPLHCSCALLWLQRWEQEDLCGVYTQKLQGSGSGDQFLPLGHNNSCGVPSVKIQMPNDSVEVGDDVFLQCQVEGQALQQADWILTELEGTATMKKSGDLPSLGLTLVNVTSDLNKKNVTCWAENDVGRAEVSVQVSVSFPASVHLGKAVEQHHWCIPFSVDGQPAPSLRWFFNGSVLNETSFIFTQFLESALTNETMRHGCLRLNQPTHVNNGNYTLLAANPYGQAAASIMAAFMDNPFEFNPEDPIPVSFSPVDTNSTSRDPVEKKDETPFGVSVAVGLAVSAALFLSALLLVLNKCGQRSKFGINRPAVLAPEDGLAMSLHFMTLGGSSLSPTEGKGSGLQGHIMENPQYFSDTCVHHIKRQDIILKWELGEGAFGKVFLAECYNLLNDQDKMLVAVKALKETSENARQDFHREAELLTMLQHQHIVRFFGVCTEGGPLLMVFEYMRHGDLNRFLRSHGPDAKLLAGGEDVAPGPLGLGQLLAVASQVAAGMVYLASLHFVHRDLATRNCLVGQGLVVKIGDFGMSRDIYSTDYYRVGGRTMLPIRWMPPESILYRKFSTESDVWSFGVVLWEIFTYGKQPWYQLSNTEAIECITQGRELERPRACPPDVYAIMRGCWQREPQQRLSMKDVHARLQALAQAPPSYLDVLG

- binding to HER2/neu [2]: bound to HER2/neu
B1: Shc 1-209: Shc amino terminus, first 209 amino acids of murine p52Shc, generated as a GST fusion protein (protein, UniProt P98083 1-209, looked up, fragment)
chain: MDLLPPKPKYNPLRNESLSSLEEGASGSTPPEELPSPSASSLGPILPPLPGDDSPTTLCSFFPRMSNLKLANPAGGRLGPKGEPGKAAEDGEGSAGAALRDSGLLPLLQDMNKLSGGGGRRTRVEGGQLGGEEWTRHGSFVNKPTRGWLHPNDKVMGPGVSYLVRYMGCVEVLQSMRALDFNTRTQVTREAISLVCEAVPGAKGATRRR
modifications: GST fusion
notes: Shc amino terminus, first 209 amino acids of murine p52Shc, generated as a GST fusion protein
- binding to TrkA [1]: bound to HER2/neu and TrkA; also recorded: bind in a similar fashion to that seen with the SH2 domain of phospholipase C-λ
